molecular target: HLA-A*01:01 presenting KRAS-Q61H 55-64 (…) (human); assay: cell-based or functional assay

| Binder | minimal recognized peptide concentration (functional avidity, IFNγ ELISPOT) [nM] |
| --- | --- |
| TCRCD8-EL8-LM7 #1 (TCR) TCR alpha: AQKITQTQPGMFVQEKEAVTLDCTYDTSDPSYGLFWYKQPSSGEMIFLIYQGSYDQQNATEGRYSLNFQKARKSANLVISASQLGDSAMYFCAMREGQDSSYKLIFGSGTRLLVRPDIQNPDPAVYQLRDS TCR beta: MGTRLLCCVAFCLLGAGPVDSGVTQTPKHLITATGQRVTLRCSPRSGDLSVYWYQQSLDQGLQFLIQYYNGEERAKGNILERFSAQQFPDLHSELNLSSLELGDSALYFCASSVLGPNTEAFFGQGTRLTVVEDLNKVFPPEVAVFE | 10 |
| TCRCD8-EL8-LM7 #8 (TCR) TCR alpha: AQKITQTQPGMFVQEKEAVTLDCTYDTSDPSYGLFWYKQPSSGEMIFLIYQGSYDQQNATEGRYSLNFQKARKSANLVISASQLGDSAMYFCAMREIRDSSYKLIFGSGTRLLVRPDIQNPDPAVYQLRDS TCR beta: MGTRLLCCVAFCLLGAGPVDSGVTQTPKHLITATGQRVTLRCSPRSGDLSVYWYQQSLDQGLQFLIQHYNGEERAKGNILERFSAQQFPDLHSELNLSSLELGDSALYFCASSPAGPNTEAFFGQGTRLTVVEDLNKVFPPEVAVFE | 100 |
| TCRCD8-EL8-LM7 #4 (TCR) TCR alpha: AQKVTQAQTEISVVEKEDVTLDCVYETRDTTYYLFWYKQPPSGELVFLIRRNSFDEQNEISGRYSWNFQKSTSSFNFTITASQVVDSAVYFCALSNAGGTSYGKLTFGQGTILTVHPNIQNPDPAVYQLRDS TCR beta: EAQVTQNPRYLITVTGKKLTVTCSQNMNHEYMSWYRQDPGLGLRQIYYSMNVEVTDKGDVPEGYKVSRKEKRNFPLILESPSPNQTSLYFCASSRRLPPPYGYTFGSGTRLTVVEDLNKVFPPEVAVFE | 10 |
| TCRCD8-EL8-LM7 #7 (TCR) TCR alpha: AQKVTQAQTEISVVEKEDVTLDCVYETRDTTYYLFWYKQPPSGELVFLIRRNSFDEQNEISGRYSWNFQKSTSSFNFTITASQVVDSAVYFCALSESSNTGKLIFGQGTTLQVKPDIQNPDPAVYQLRDS TCR beta: EAQVTQNPRYLITVTGKKLTVTCSQNMNHEYMSWYRQDPGLGLRQIYYSMNVEVTDKGDVPEGYKVSRKEKRNFPLILESPSPNQTSLYFCASSRREPPPYGYTFGSGTRLTVVEDLNKVFPPEVAVFE | 10 |
